Experimental data taken from patent publication US20190375844A1 (OSE IMMUNOTHERAPEUTICS, published 2019).

T1: recombinant hCD127 (Sino Biologicals, reference 10975-H08H) (human, UniProt P16871 21-239)
T1 construct: Bought recombinant protein; In the Blitz assay the protein is said to be captured by an Fc fragment, and a second catalogue number (11612-H08H) is printed; also called human CD127 recombinant protein; recombinant human CD127
T1 chain: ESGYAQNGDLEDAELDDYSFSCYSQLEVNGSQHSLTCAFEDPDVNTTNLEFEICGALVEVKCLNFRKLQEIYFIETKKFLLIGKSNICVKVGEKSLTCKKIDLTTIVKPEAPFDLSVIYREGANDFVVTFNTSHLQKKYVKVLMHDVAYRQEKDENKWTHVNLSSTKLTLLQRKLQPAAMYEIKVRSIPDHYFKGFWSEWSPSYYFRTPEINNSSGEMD

T2: human CD127 (IL-7Rα) on human PBMC (human, UniProt P16871 21-459)
T2 chain: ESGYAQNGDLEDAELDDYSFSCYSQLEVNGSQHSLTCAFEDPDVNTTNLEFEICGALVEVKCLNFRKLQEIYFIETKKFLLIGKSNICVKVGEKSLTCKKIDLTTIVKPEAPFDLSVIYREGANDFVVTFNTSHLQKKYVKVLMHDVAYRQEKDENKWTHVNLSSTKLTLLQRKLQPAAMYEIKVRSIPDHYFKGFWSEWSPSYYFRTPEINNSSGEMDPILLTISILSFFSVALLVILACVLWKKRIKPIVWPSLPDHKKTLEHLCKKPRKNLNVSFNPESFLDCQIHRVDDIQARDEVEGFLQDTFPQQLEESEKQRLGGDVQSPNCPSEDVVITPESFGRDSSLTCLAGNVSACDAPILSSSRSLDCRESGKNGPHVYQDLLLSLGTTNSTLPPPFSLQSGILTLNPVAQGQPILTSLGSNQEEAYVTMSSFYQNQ

T3: recombinant hCD127 (Sino Biologicals, reference 10975-H08H) (human) (UniProt P16871)
T3 sequence: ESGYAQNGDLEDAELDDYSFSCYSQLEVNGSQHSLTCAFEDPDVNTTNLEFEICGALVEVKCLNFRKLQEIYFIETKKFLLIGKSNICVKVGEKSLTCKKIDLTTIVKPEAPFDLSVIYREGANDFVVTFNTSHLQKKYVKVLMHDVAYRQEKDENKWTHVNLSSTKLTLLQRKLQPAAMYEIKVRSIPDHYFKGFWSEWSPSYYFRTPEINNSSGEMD


Legend:
[1] = molecular target: T1, recombinant hCD127 (Sino Biologicals, …); experiment: Blitz (BLI), hCD127 captured on anti-human IgG Fc (AHC) biosensor, antibody at 20 µg/mL
Experimental: Recombinant hCD127 (Sino Biologicals, Beijing, China; reference 10975-H08H)/recombinant protein (Sino Biological Cat: 11612-H08H) was immobilized at 50 μg/ml by Fc fragment into anti-human IgG Fc (AHC) biosensor (Forte Bio, 18-5063) for 30 seconds. Then, anti-CD127 antibodies were added at 20 μg/mL (saturating concentration) for an association period of 120 seconds, followed by a dissociation period of anti-CD127 antibody in kinetics buffer for 120 seconds. Data analysis was made with the Blitz pro 1.2 software, which calculated association constant (ka) and dissociation constant (kd) and determined the affinity constant KD […].

[2] = molecular target: T2, human CD127 (IL-7Rα) on human PBMC; experiment: cell-based or functional assay
[3] = molecular target: T1, recombinant hCD127 (Sino Biologicals, …); experiment: ELISA, hCD127 immobilized on plastic at 1 µg/ml (given as ED50)
Experimental: (§1) For activity ELISA assay, recombinant hCD127 (Sino Biologicals, Beijing, China; reference 10975-H08H) was immobilized on plastic at 1 μg/ml and dilutions of anti-CD127 antibody were added to measure binding.

[4] = molecular target: T1, recombinant hCD127 (Sino Biologicals, …); experiment: ELISA on CD127 after storage of the antibody 7 days at 25° C. (given as ED50)
Experimental: as §1
(§2) Stability of the antibodies was studies by incubating the antibodies for 7, 14, or 30 days at 4° C., 25° C. and 42° C.

[5] = molecular target: T1, recombinant hCD127 (Sino Biologicals, …); experiment: ELISA on CD127 after storage of the antibody 30 days at 42° C. (given as ED50)
Experimental: as §1, §2

[6] = molecular target: T1, recombinant hCD127 (Sino Biologicals, …); experiment: method not stated
[7] = molecular target: T1, recombinant hCD127 (Sino Biologicals, …); experiment: ELISA on CD127 after storage of the antibody 14 days at 4° C. (given as ED50)
Experimental: as §1, §2

[8] = molecular target: T1, recombinant hCD127 (Sino Biologicals, …); experiment: ELISA on CD127 after storage of the antibody 14 days at 25° C. (given as ED50)
Experimental: as §1, §2

[9] = molecular target: T1, recombinant hCD127 (Sino Biologicals, …); experiment: ELISA on CD127 after storage of the antibody 7 days at 42° C. (given as ED50)
Experimental: as §1, §2

[10] = molecular target: T1, recombinant hCD127 (Sino Biologicals, …); experiment: ELISA on CD127 after storage of the antibody 30 days at 25° C. (given as ED50)
Experimental: as §1, §2

[11] = molecular target: T1, recombinant hCD127 (Sino Biologicals, …); experiment: ELISA on CD127 after storage of the antibody 30 days at 4° C. (given as ED50)
Experimental: as §1, §2

[12] = molecular target: T1, recombinant hCD127 (Sino Biologicals, …); experiment: ELISA on CD127 after storage of the antibody 7 days at 4° C. (given as ED50)
Experimental: as §1, §2

[13] = molecular target: T1, recombinant hCD127 (Sino Biologicals, …); experiment: ELISA on CD127 after storage of the antibody 14 days at 42° C. (given as ED50)
Experimental: as §1, §2

[14] = molecular target: T3, recombinant hCD127 (Sino Biologicals, reference 10975-H08H) (human); experiment: method not stated

Row | Binder | Kd [1] | koff [1] | kon [1] | IC50-MFI, inhibition of IL7-induced STAT5 phosphorylation in CD3+ human PBMC [2] | EC50 [3] | further results
1 | N13B2-h3 (antibody, V domains shown, also called humanized N13B2 of WO 2015/189302) VH: QVQLVESGGGLVKPGGSLRLSCAVSGFTLSDYYMAWIRQAPGKGLEWVSTISASGLRTYYPDSVKGRFTISRDNAKNSLYLQMNSLRAEDTAVYYCARPLSAHYGFNYFDYWGQGTLVTVSS VL: EIVMTQSPATLSVSPGERATLSCRTSEDIYQGLAWYQQKPGQAPRLLIYSANTLHIGIPARFSGSGSGTEFTLTISSLQSEDFAVYYCQQYYDYPLAFGGGTKVEIKR | 2.33 nM | 0.00267 s⁻¹ | 1.15e+06 M⁻¹ s⁻¹ | 0.0215 µg/mL | 0.0168 µg/mL | 
2 | N13B2-hVL3 (antibody, V domains shown) VH: QVQLVESGGGLVKPGGSLRLSCAVSGFTLSDYYMAWIRQAPGKGLEWVSTISASGLRTYYPDSVKGRFTISRDNAKNSLYLQMNSLRAEDTAVYYCARPLSAHYGFNYFDYWGQGTLVTVSS VL: DIQMTQSPSSLSASVGDRVTITCRTSEDIYQGLAWYQQKPGKAPKLLVYSANTLHIGVPSRFSGSGSGTDYTLTISSLQPEDFATYFCQQYYDYPLAFGGGTKVEIKR |  |  |  | 0.0272 µg/mL |  | 
3 | 1A11 (antibody, V domains shown) VH: EVQLQQSGPELLKPGASMKISCKASGYSFTGYTMNWVKQSHGKNLEWIGLINPYNGVTSYNQKFKGKATLTVAKSSSTAYMELLSLTSEDSAVYYCARGDGNYWYFDVWGAGTTVTVSS VL: EIVLTQSPAITAASLGQKVTITCSASSSVTYMHWYQQKSGTSPKPWIYEISKLASGVPVRFSGSGSGTSYSLTISSMEAEDAAIYYCQEWNYPYTFGGGTKLEIK |  |  |  |  |  | Kd [6]: 0.6 nM
4 | MD707-13 (antibody, from another filing, human IgG4, V domains shown) VH: QLKESGPGLVQPSQTLSLTCTVSGLSLPNNNIAWIRQSPGKGLEWMGVIWSNGDTDYNSAIRSRLSISRDSSKSQVFLRMNSLQSEDTAMYFCAREGMTTLDYWGQGVVVTVSS VL: EIVLTQSPTTMAASPGEKVTITCRASSSVSYMHWFQQKSGSSPKPWIYDSSDLASGVPDRFSGSGSGTSYSLTISSMEAEDAATYYCLQRSSYPRTFGGGTKLELKR |  |  |  |  |  | Kd [14]: 0.5 nM

Now from value to binder, other results behind:

Row | Kd [1] | koff [1] | kon [1] | IC50-MFI, inhibition of IL7-induced STAT5 phosphorylation in CD3+ human PBMC [2] | EC50 [3] | Binder | further results
5 | 2.71 nM | 0.00281 s⁻¹ | 1.04e+06 M⁻¹ s⁻¹ | 0.0161 µg/mL | 0.0126 µg/mL | N13B2-hVL4 (antibody, V domains shown, also called N13B2-VL4-V48L) VH: QVQLVESGGGLVKPGGSLRLSCAVSGFTLSDYYMAWIRQAPGKGLEWVSTISASGLRTYYPDSVKGRFTISRDNAKNSLYLQMNSLRAEDTAVYYCARPLSAHYGFNYFDYWGQGTLVTVSS VL: DIQMTQSPSSLSASVGDRVTITCRTSEDIYQGLAWYQQKPGKAPKLLLYSANTLHIGVPSRFSGSGSGTDYTLTISSLQPEDFATYFCQQYYDYPLAFGGGTKVEIKR | 
6 | 2.63 nM | 0.00266 s⁻¹ | 1.01e+06 M⁻¹ s⁻¹ | 0.0273 µg/mL | 0.0148 µg/mL | N13B2-hVL5 (antibody, V domains shown, also called N13B2-VL5-F87Y) VH: QVQLVESGGGLVKPGGSLRLSCAVSGFTLSDYYMAWIRQAPGKGLEWVSTISASGLRTYYPDSVKGRFTISRDNAKNSLYLQMNSLRAEDTAVYYCARPLSAHYGFNYFDYWGQGTLVTVSS VL: DIQMTQSPSSLSASVGDRVTITCRTSEDIYQGLAWYQQKPGKAPKLLVYSANTLHIGVPSRFSGSGSGTDYTLTISSLQPEDFATYYCQQYYDYPLAFGGGTKVEIKR | 
7 | 2.53 nM | 0.00266 s⁻¹ | 1.05e+06 M⁻¹ s⁻¹ | 0.0168 µg/mL | 0.0095 µg/mL | N13B2-hVL6 (antibody, V domains shown, also called N13B2-h3VL6; N13B2-VL6-V48L-F87Y) VH: QVQLVESGGGLVKPGGSLRLSCAVSGFTLSDYYMAWIRQAPGKGLEWVSTISASGLRTYYPDSVKGRFTISRDNAKNSLYLQMNSLRAEDTAVYYCARPLSAHYGFNYFDYWGQGTLVTVSS VL: DIQMTQSPSSLSASVGDRVTITCRTSEDIYQGLAWYQQKPGKAPKLLLYSANTLHIGVPSRFSGSGSGTDYTLTISSLQPEDFATYYCQQYYDYPLAFGGGTKVEIKR | EC50 [4]: 0.0478 µg/mL; EC50 [5]: 0.0587 µg/mL; Kd [6]: 0.2 nM; EC50 [7]: 0.0628 µg/mL; EC50 [8]: 0.0526 µg/mL; EC50 [9]: 0.0562 µg/mL; EC50 [10]: 0.0402 µg/mL; EC50 [11]: 0.047 µg/mL; EC50 [12]: 0.0553 µg/mL; EC50 [13]: 0.0406 µg/mL
